Reference: patent publication US20040258656, “High affinity TGFbeta nucleic acid ligands and inhibitors” (published 2004)
Read-outs that look alike come from different tables or passages of the source.

Assays:
[1] = biological target: T1, TGFβ2 (transforming growth factor beta 2) (Homo sapiens, UniProt P61812 SEQ:1-112); assay: filter; details: chain copies: 2 (inferred, homodimer)
T1 sequence: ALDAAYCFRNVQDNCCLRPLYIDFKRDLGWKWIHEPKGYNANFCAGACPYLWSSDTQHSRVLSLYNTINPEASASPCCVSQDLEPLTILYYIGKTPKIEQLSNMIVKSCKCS

[2] = biological target: T2, TGFβ1 (transforming growth factor beta 1) (Homo sapiens, UniProt P01137 SEQ:1-112); assay: bioactivity +++; details: chain copies: 2 (inferred, homodimer)
[3] = biological target: T2, TGFβ1 (transforming growth factor beta …)
[4] = biological target: T1, TGFβ2 (transforming growth factor beta …); assay: filter; details: chain copies: 2 (inferred, homodimer); remark: listed apart in the source
[5] = biological target: T1, TGFβ2 (transforming growth factor beta …); assay: filter; details: chain copies: 2 (inferred, homodimer); remark: listed apart in the source
[6] = biological target: T1, TGFβ2 (transforming growth factor beta …); assay: filter; 37C; Ki 230 nM in cell assay; details: chain copies: 2 (inferred, homodimer)
Procedure: (§1) The binding activity of individual ligands was determined by measuring the equilibrium dissociation constants using nitrocellulose partitioning of labeled RNA as a function of protein concentration. RNA was body-labeled or guanylated and then 5′-end labeled with γ-³²P ATP and T4 polynucleotide kinase. Binding reactions were set at various protein concentrations (typically varied in either 3-fold or 10-fold increments) while maintaining the labeled RNA concentration constant at less than 0.1 nM, and incubated at 37° C. for 10 minutes. Protein-RNA complexes were partitioned away from uncomplexed RNA, by filtering the binding reactions through a nitrocellulose/cellulose acetated mixed matrix (0.45 μm pore size filter disks, type HA; Millipore, Co., Bedford, Mass.). For filtration, the filters were placed onto a vacuum manifold (12-well, Millipore, or 96-well BRL) and wetted by aspirating 1-5 ml of binding buffer. The binding reactions were aspirated through the filters, washed with 1-5 ml of binding buffer and counted in a scintillation counter (Beckmann).

[7] = biological target: T1, TGFβ2 (transforming growth factor beta …); assay: cell_activity; mink lung epithelial cell proliferation; text p154 about 200 nM; details: chain copies: 2 (homodimer, stated)
Procedure: (§2) The bioactivity of TGFβ2 nucleic acid ligands was measured with mink lung epithelial cells. Proliferation of these cells is inhibited by TGFβ2. Human TGFβ2 was titrated on the cells and ³H-thymidine incorporation was measured. […] This inhibitory amount of TGFβ2 along with varying amounts of nucleic acid ligand (typically 0.3 or 1 nM to 1 or 3 μM, in 3 fold increments) was used. Typically, cells were plated at 10E5/ml in 96-well plates in 100 μl MEM, 10 mM HEPES pH 7.4, 0.2% FBS. […] After incubation, the cells were lysed with 1% Triton X-100 and harvested onto GF/B filter plates in a Packard 96 well plate harvester, and ³H-thymidine incorporation in cellular DNA was quantitated by scintillation counting in MicroScint (Packard, Mariden, Conn.) in a Packard Top-Count. Data were plotted as % of maximum ³H-thymidine incorporation vs RNA concentration, and were fitted by the software Kaleidagraph (Synergy Software, Reading, Pa.) to the equation m3*(m0+m1+(m2)−((m0+m1+(m2))*(m0+m1+(m2))−4*(m0)*( m2)))\hat{ }0.5)/(2*(m2)); where m0 is the concentration of competitor RNA; m1 is the IC50, m2 is the concentration of TGFβ2, and m3 is the plateau value of the fraction of maximum ³H-thymidine incorporation. […]

[8] = biological target: T1, TGFβ2 (transforming growth factor beta …); assay: filter; details: chain copies: 2 (inferred, homodimer); remark: listed apart in the source
[9] = biological target: T1, TGFβ2 (transforming growth factor beta …); assay: filter; 37C; Ki 10 nM in cell assay; details: chain copies: 2 (inferred, homodimer)
Procedure: as §1

[10] = biological target: T1, TGFβ2 (transforming growth factor beta …); assay: cell_activity; mink lung epithelial cell proliferation; details: chain copies: 2 (homodimer, stated)
Procedure: as §2

[11] = biological target: T1, TGFβ2 (transforming growth factor beta …); assay: filter; 37C; Ki 30 nM in cell assay; details: chain copies: 2 (inferred, homodimer)
Procedure: as §1

[12] = biological target: T1, TGFβ2 (transforming growth factor beta …); assay: filter; Table 18 footnote states ~1 nM; Ki ~10 nM; details: chain copies: 2 (inferred, homodimer)
[13] = biological target: T1, TGFβ2 (transforming growth factor beta …); assay: filter; details: chain copies: 2 (inferred, homodimer); remark: listed apart in the source
[14] = biological target: T1, TGFβ2 (transforming growth factor beta …); assay: cell_activity; mink lung epithelial cell proliferation; details: chain copies: 2 (inferred, homodimer)
Procedure: The bioactivity of TGFβ2 nucleic acid ligands was measured with mink lung epithelial cells. Proliferation of these cells is inhibited by TGFβ2. Human TGFβ2 was titrated on the cells and ³H-thymidine incorporation was measured. […] This inhibitory amount of TGFβ2 along with varying amounts of nucleic acid ligand (typically 0.3 or 1 nM to 1 or 3 μM, in 3 fold increments) was used. Typically, cells were plated at 10E5/ml in 96-well plates in 100 μl MEM, 10 mM HEPES pH 7.4, 0.2% FBS. […] After incubation, the cells were lysed with 1% Triton X-100 and harvested onto GF/B filter plates in a Packard 96 well plate harvester, and ³H-thymidine incorporation in cellular DNA was quantitated by scintillation counting in MicroScint (Packard, Mariden, Conn.) in a Packard Top-Count. Data were plotted as % of maximum ³H-thymidine incorporation vs RNA concentration, and were fitted by the software Kaleidagraph (Synergy Software, Reading, Pa.) to the equation m3*(m0+m1+(m2)−((m0+m1+(m2))*(m0+m1+(m2))−4*(m0)*( m2)))\hat{ }0.5)/(2*(m2)); where m0 is the concentration of competitor RNA; m1 is the IC50, m2 is the concentration of TGFβ2, and m3 is the plateau value of the fraction of maximum ³H-thymidine incorporation.

T2 sequence (P01137 279-390): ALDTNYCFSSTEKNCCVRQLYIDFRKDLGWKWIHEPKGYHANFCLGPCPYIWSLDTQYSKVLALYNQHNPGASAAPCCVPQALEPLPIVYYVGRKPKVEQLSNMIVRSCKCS

GGGGAGCGGCGUUGUUGAAAAGUCCGCUU (ssRNA, 2'-F C and U) [21a-4(ML-92)] was tested, and the binding signal [1] was > 100 x Kd of 21a-4.

For GGGGAGCGGCGUUGUUUAGUCGUAUGUAUAUACUAAGUCCGCUU (ssRNA, 2'-F C and U) [21a-4(ML-91)], the binding signal [1] was 1 x Kd of 21a-4.

GGGUGCCUUUUGCCUAGGUUGUGAUUUGUAACCUUCUGCCCA (ssRNA, 2'-F pyrimidines (library chemistry)) [CD70 (ChD70)]: binds [2].

GGGUGCCUUUUGCCUAGGUUGUGAUUUGUAACCUUCUGCCCA (ssRNA, 2'-OMe purines at 21, 23-24, 28 and 30) [ChD70-m13]: binds [3].

GGGUGCCUUUUGCCUAGGUUGUGAUUUGUAACCUUCUGCCCA (ssRNA, 2'-OMe purines at 1-3, 16-18, 21, 23-24, 28, 30-31 and 42; 3'-3' U) [ChD70-m17]: binds [2].

For GGGGAGCGGCGUUGUUUAGUCGUAUGUAUAUACUAAGU (ssRNA, 2'-F C and U) [21a-4(ML-111)], the binding signal [1] was 30 x Kd of 21a-4.

In the case of GGGGAGCGGCGUUGUUUCGUAUGUAUAUAAGUCCGCUU (ssRNA, 2'-F C and U) [21a-4(ML-108)], the binding signal [1] is reported as > 100 x Kd of 21a-4.

GGCGUUGUUUAGUCGUAUGUAUAUACUAAGUCCGCUUGUCCCCA (ssRNA, 2'-F C and U) [21a-4Δ5',3'] was tested, and the binding signal [1] was > 100 x Kd of 21a-4.

For GGGAGGAUGCGGAAGUAACGUUGUAGUAAAAUUCC (ssRNA, 2'-F C and U) [14i-1t5-38], the binding signal [4] was > 100 x Kd of 14i-1.

In the case of GGGAGGAUGCGGAAGUAACGUUGUAGUAAAAUUCCUUC (ssRNA, 2'-F C and U) [14i-1t5-41], the binding signal [4] is reported as 1 x Kd of 14i-1.

B1: NX22426 (ssRNA)
RNA: GGAGAUAUUACAGAGUCUGUAUAGCUGUACUCC
modifications: 2'-F C and U; 2'-OMe at lowercase a,g of ggaga-UAUUaCagagUCUgUAUAgCUgUaCucc with G of CUGUAUA 2'-OH; 3'-3' dT
In the case of B1, the binding signal [5] is reported as 1 x Kd of NX22284.

For GGGAGGAGUAACGUUGUAGU (ssRNA, 2'-F C and U) [14i-1(ML-89)], the binding signal [4] was > 100 x Kd of 14i-1.

B2: 14i-1 (ssRNA)
RNA: GGGAGGACGAUGCGGAAGUAACGUUGUAGUAAAAUUCGUUCUCUCGGCAUUUGGCCAGACGACUCGCCCGA
modifications: 2'-F C and U
Work on B2 yielded a Kd [6] of roughly 10 nM.

B3: 14i-1 (ssRNA)
RNA: GGGAGGACGAUGCGGAAGUAACGUUGUAGUAAAAUUCGUUCUCUCGGCAUUUGGCCAGACGACUCGCCCGA
modifications: 2'-F C and U; 2'-OH A and G
B3 was tested, and the Ki [7] was 230 nM.

For GGGAGGAUGCGGAAGUAACGUUGUAGUAAAAU (ssRNA, 2'-F C and U) [14i-1t5-35], the binding signal [4] was > 100 x Kd of 14i-1.

In the case of GGGGAGCGGCGUUGUUUAUGUAUAAGUCCGCUU (ssRNA, 2'-F C and U) [21a-4(ML-109)], the binding signal [1] is reported as > 100 x Kd of 21a-4.

With UGUGAAUAUUAGAGAGUCUGUAUAGCUCUACCCC (ssRNA, 2'-F C and U; 3'-3' dT) [NX22385] the binding signal [8] was 0.4 x Kd of NX22284.

B4: NX22425 (ssRNA)
RNA: UGUGAAUAUUAGAGAGUCUGUAUAGCUCUACCCC
modifications: 2'-F C and U; 2'-OMe at lowercase a,g of UgUgaaUAUUagagagUCUGUAUAgCUCUaCCCC; 3'-3' dT
With B4 the binding signal [8] was 1.5 x Kd of NX22284.

B5: NX22424 (ssRNA)
RNA: UGUGAAUAUUAGAGAGUCUGUAUAGCUCUACCCC
modifications: 2'-F C and U; 2'-OMe at lowercase a,g of UgUgAAUAUUaGagagUCUGUAUAgCUCUaCCCC; 3'-3' dT
In the case of B5, the binding signal [8] is reported as 0.6 x Kd of NX22284.

B6: 21a-21 (ssRNA)
RNA: GGGAGGACGAUGCGGUUCAGGAGGUUAUUACAGAGUCUGUAUAGCUGUACUCCCCAGACGACUCGCCCGA
modifications: 2'-F C and U
B6 was tested, and the Kd [9] was roughly 1 nM.

B7: 21a-21 (ssRNA)
RNA: GGGAGGACGAUGCGGUUCAGGAGGUUAUUACAGAGUCUGUAUAGCUGUACUCCCCAGACGACUCGCCCGA
modifications: 2'-F C and U; 2'-OH A and G
Binder B7 has a Ki [10] of 10 nM.

B8: 21a-4 (ssRNA)
RNA: GGGAGGACGAUGCGGCGUUGUUUAGUCGUAUGUAUAUACUAAGUCCGCUUGUCCCCAGACGACUCGCCCGA
modifications: 2'-F C and U
For B8, the Kd [11] was roughly 3 nM.

B9: 21a-4 (ssRNA)
RNA: GGGAGGACGAUGCGGCGUUGUUUAGUCGUAUGUAUAUACUAAGUCCGCUUGUCCCCAGACGACUCGCCCGA
modifications: 2'-F C and U; 2'-OH A and G
B9 was tested, and the Ki [10] was 30 nM.

In the case of GGAGGUUAUUACAGAGUCUGUAUAGCUGUACUCC (ssRNA, 2'-F C and U; 3'-3' dT cap) [NX22284], the Kd [12] is reported as roughly 2 nM.

GGAGGUUAUUACAGAGUCUGUAUAGCUGUACUCC (ssRNA, 2'-F C and U; 2'-OMe at all purines except A8, G20, A22, A24; 3'-3' dT) [NX22420] was tested, and the binding signal [5] was 1 x Kd of NX22284.

In the case of GGAGGUUAUUACAGAGUCUGUAUAGCUGUACUCC (ssRNA, 2'-F C and U; 2'-OMe at all purines except G5, A8, A11, G20, A22, A24; 3'-3' dT) [NX22421], the binding signal [5] is reported as 2 x Kd of NX22284.

With GGAGGUUAUUACAGAGUCUGUAUAGCUGUACUCCCC (ssRNA, 2'-F C and U; 3'-3' dT cap) [NX22283] the binding signal [13] was 0.6 x Kd of NX22284 and the Ki [14] was 10 nM.

In the case of GGGGAGCGGCGUUGUUUAGUCGUAUGUAUAUACUAAGUCCGC (ssRNA, 2'-F C and U) [21a-4(ML-110)], the binding signal [1] is reported as 1 x Kd of 21a-4.

In the case of GGGAGGAUGCGGAAGUAACGUUGUAGU (ssRNA, 2'-F C and U) [14i-1(ML-87)], the binding signal [4] is reported as > 100 x Kd of 14i-1.

In the case of GGAAGUAACGUUGUAGUAAAAUUCGUUCUCUCGGCAUUUGGCCA (ssRNA, 2'-F C and U) [14i-1Δ5',3'], the binding signal [4] is reported as > 100 x Kd of 14i-1.

With GGGAGGAUGCGGAAGUAACGUUGUAGUUCCUUC (ssRNA, 2'-F C and U) [14i-1(ML-86)] the binding signal [4] was > 100 x Kd of 14i-1.
